Source: the supplement of paper PMC9112550, “Optimization of the antimicrobial peptide Bac7 by deep mutational scanning” (BMC Biology, 2022)

System: Escherichia coli TOP10
Experiment: shrunken log2 fold change of peptide-encoding DNA abundance (4.5 h post-induction vs induction); higher = less antimicrobial activity (less host growth inhibition)
Settings: time post-induction: 4.5 h; library: site-saturation at positions 5, 18, 19, 20
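Note: peptides expressed intracellularly from a pBAD plasmid library in pooled LB shake-flask culture, induced with 0.3% L-arabinose, DNA abundance read by NGS, three biological replicates, DESeq2 with apeglm shrinkage.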

RRIRDRPPRLPRPRPRPRYIPRP was tested, and the “shrunken log2 fold change” value was -0.356.

In the case of RRIRSRPPRLPRPRPRPMLYPRP, the “shrunken log2 fold change” value is reported as 0.0575.

In the case of RRIRWRPPRLPRPRPRPLYTPRP, the “shrunken log2 fold change” value is reported as -0.24.

With RRIRSRPPRLPRPRPRPSWVPRP the “shrunken log2 fold change” value was 0.0183.

In the case of RRIRMRPPRLPRPRPRPNTYPRP, the “shrunken log2 fold change” value is reported as -0.0596.

RRIRQRPPRLPRPRPRPPESPRP was tested, and the “shrunken log2 fold change” value was 0.528.

For RRIRNRPPRLPRPRPRPGSVPRP, the “shrunken log2 fold change” value was -0.0436.

In the case of RRIRCRPPRLPRPRPRPIVPPRP, the “shrunken log2 fold change” value is reported as -0.298.

In the case of RRIRTRPPRLPRPRPRPCDGPRP, the “shrunken log2 fold change” value is reported as 0.134.

With RRIRIRPPRLPRPRPRPKENPRP the “shrunken log2 fold change” value was -0.505.

RRIRMRPPRLPRPRPRPHFCPRP was tested, and the “shrunken log2 fold change” value was -0.0487.

For RRIRCRPPRLPRPRPRPRMDPRP, the “shrunken log2 fold change” value was -0.0539.

For RRIRGRPPRLPRPRPRPEKFPRP, the “shrunken log2 fold change” value was 0.716.

In the case of RRIRERPPRLPRPRPRPENEPRP, the “shrunken log2 fold change” value is reported as -0.0522.

RRIRLRPPRLPRPRPRPARWPRP was tested, and the “shrunken log2 fold change” value was 0.284.

With RRIRHRPPRLPRPRPRPAKCPRP the “shrunken log2 fold change” value was -0.0799.

With RRIRMRPPRLPRPRPRPFIFPRP the “shrunken log2 fold change” value was -0.233.

In the case of RRIRARPPRLPRPRPRPQISPRP, the “shrunken log2 fold change” value is reported as -0.051.

For RRIRWRPPRLPRPRPRPWAAPRP, the “shrunken log2 fold change” value was 0.351.

For RRIRYRPPRLPRPRPRPWGQPRP, the “shrunken log2 fold change” value was 0.00911.

RRIRLRPPRLPRPRPRPCKDPRP was tested, and the “shrunken log2 fold change” value was -0.194.

RRIRIRPPRLPRPRPRPPSQPRP was tested, and the “shrunken log2 fold change” value was 0.258.

In the case of RRIRMRPPRLPRPRPRPNWMPRP, the “shrunken log2 fold change” value is reported as -0.0131.

RRIRERPPRLPRPRPRPSKSPRP was tested, and the “shrunken log2 fold change” value was -0.688.

In the case of RRIRVRPPRLPRPRPRPHTIPRP, the “shrunken log2 fold change” value is reported as -0.487.

RRIRQRPPRLPRPRPRPQLPPRP was tested, and the “shrunken log2 fold change” value was -0.23.

RRIRHRPPRLPRPRPRPDIAPRP was tested, and the “shrunken log2 fold change” value was 0.00497.

For RRIRIRPPRLPRPRPRPQPAPRP, the “shrunken log2 fold change” value was 0.213.

RRIRWRPPRLPRPRPRPFGMPRP was tested, and the “shrunken log2 fold change” value was -0.283.

In the case of RRIRERPPRLPRPRPRPMYGPRP, the “shrunken log2 fold change” value is reported as -0.739.

In the case of RRIRKRPPRLPRPRPRPRSFPRP, the “shrunken log2 fold change” value is reported as -0.0333.

RRIRQRPPRLPRPRPRPGAQPRP was tested, and the “shrunken log2 fold change” value was 0.528.

With RRIRQRPPRLPRPRPRPMVGPRP the “shrunken log2 fold change” value was -0.00963.

With RRIRLRPPRLPRPRPRPGRTPRP the “shrunken log2 fold change” value was 0.292.

For RRIRVRPPRLPRPRPRPYWYPRP, the “shrunken log2 fold change” value was -0.964.

With RRIRERPPRLPRPRPRPTCNPRP the “shrunken log2 fold change” value was -0.315.

RRIRARPPRLPRPRPRPIMGPRP was tested, and the “shrunken log2 fold change” value was 0.0143.

With RRIRVRPPRLPRPRPRPHLHPRP the “shrunken log2 fold change” value was -0.279.

For RRIRIRPPRLPRPRPRPWHVPRP, the “shrunken log2 fold change” value was -0.0239.

For RRIRFRPPRLPRPRPRPADYPRP, the “shrunken log2 fold change” value was -0.207.

For RRIRPRPPRLPRPRPRPMLVPRP, the “shrunken log2 fold change” value was 0.0962.

For RRIRWRPPRLPRPRPRPRGLPRP, the “shrunken log2 fold change” value was 0.698.

RRIRMRPPRLPRPRPRPRCLPRP was tested, and the “shrunken log2 fold change” value was -0.0778.

For RRIRLRPPRLPRPRPRPGMGPRP, the “shrunken log2 fold change” value was 0.241.

RRIRCRPPRLPRPRPRPVANPRP was tested, and the “shrunken log2 fold change” value was 0.0866.

RRIRFRPPRLPRPRPRPMCHPRP was tested, and the “shrunken log2 fold change” value was -0.325.

RRIRSRPPRLPRPRPRPPKLPRP was tested, and the “shrunken log2 fold change” value was -0.11.

In the case of RRIRERPPRLPRPRPRPKCIPRP, the “shrunken log2 fold change” value is reported as -0.464.

RRIRHRPPRLPRPRPRPNTLPRP was tested, and the “shrunken log2 fold change” value was -0.0867.

RRIRHRPPRLPRPRPRPSTYPRP was tested, and the “shrunken log2 fold change” value was -0.202.

For RRIRVRPPRLPRPRPRPPPAPRP, the “shrunken log2 fold change” value was 1.07.

With RRIRNRPPRLPRPRPRPSVFPRP the “shrunken log2 fold change” value was -0.342.

For RRIRNRPPRLPRPRPRPQQCPRP, the “shrunken log2 fold change” value was -0.0851.

With RRIRTRPPRLPRPRPRPDPHPRP the “shrunken log2 fold change” value was -0.00783.

RRIRVRPPRLPRPRPRPFMKPRP was tested, and the “shrunken log2 fold change” value was -0.737.

With RRIRPRPPRLPRPRPRPWTHPRP the “shrunken log2 fold change” value was -0.0188.

RRIRIRPPRLPRPRPRPEDCPRP was tested, and the “shrunken log2 fold change” value was 0.00952.

For RRIRERPPRLPRPRPRPECWPRP, the “shrunken log2 fold change” value was 0.447.

RRIRIRPPRLPRPRPRPEHKPRP was tested, and the “shrunken log2 fold change” value was -0.199.

In the case of RRIRTRPPRLPRPRPRPACLPRP, the “shrunken log2 fold change” value is reported as -0.217.

For RRIRQRPPRLPRPRPRPKDQPRP, the “shrunken log2 fold change” value was 0.0983.

In the case of RRIRHRPPRLPRPRPRPRTKPRP, the “shrunken log2 fold change” value is reported as 0.204.

RRIRARPPRLPRPRPRPGKGPRP was tested, and the “shrunken log2 fold change” value was 0.158.

For RRIRLRPPRLPRPRPRPSRYPRP, the “shrunken log2 fold change” value was -0.0576.

With RRIRIRPPRLPRPRPRPVHIPRP the “shrunken log2 fold change” value was -0.155.

With RRIRSRPPRLPRPRPRPAPNPRP the “shrunken log2 fold change” value was 0.329.

For RRIRDRPPRLPRPRPRPWKEPRP, the “shrunken log2 fold change” value was -0.0075.

For RRIRDRPPRLPRPRPRPKGQPRP, the “shrunken log2 fold change” value was 0.116.

For RRIRVRPPRLPRPRPRPQMEPRP, the “shrunken log2 fold change” value was -0.0589.

For RRIRWRPPRLPRPRPRPPFKPRP, the “shrunken log2 fold change” value was 0.331.

RRIRCRPPRLPRPRPRPLTEPRP was tested, and the “shrunken log2 fold change” value was 0.131.

For RRIRTRPPRLPRPRPRPPGFPRP, the “shrunken log2 fold change” value was 0.287.

For RRIRMRPPRLPRPRPRPLPCPRP, the “shrunken log2 fold change” value was 0.372.

In the case of RRIRNRPPRLPRPRPRPLKVPRP, the “shrunken log2 fold change” value is reported as 4.47.

RRIRMRPPRLPRPRPRPYIFPRP was tested, and the “shrunken log2 fold change” value was -0.265.

With RRIRRRPPRLPRPRPRPFGGPRP the “shrunken log2 fold change” value was 0.0433.

In the case of RRIRTRPPRLPRPRPRPQWTPRP, the “shrunken log2 fold change” value is reported as -1.27.

For RRIRARPPRLPRPRPRPGMKPRP, the “shrunken log2 fold change” value was 0.186.

With RRIRCRPPRLPRPRPRPYIIPRP the “shrunken log2 fold change” value was -0.985.

RRIRERPPRLPRPRPRPCVKPRP was tested, and the “shrunken log2 fold change” value was -0.00643.

RRIRARPPRLPRPRPRPCLEPRP was tested, and the “shrunken log2 fold change” value was 0.19.

RRIRTRPPRLPRPRPRPWWGPRP was tested, and the “shrunken log2 fold change” value was 0.221.

RRIRVRPPRLPRPRPRPVFSPRP was tested, and the “shrunken log2 fold change” value was -0.176.

In the case of RRIRMRPPRLPRPRPRPMYPPRP, the “shrunken log2 fold change” value is reported as -0.00194.

With RRIRRRPPRLPRPRPRPAAGPRP the “shrunken log2 fold change” value was 0.326.

For RRIRYRPPRLPRPRPRPYMVPRP, the “shrunken log2 fold change” value was -0.386.

RRIRGRPPRLPRPRPRPFMMPRP was tested, and the “shrunken log2 fold change” value was -0.467.

In the case of RRIRFRPPRLPRPRPRPHGVPRP, the “shrunken log2 fold change” value is reported as -0.0563.

RRIRGRPPRLPRPRPRPNDVPRP was tested, and the “shrunken log2 fold change” value was -0.208.

With RRIRERPPRLPRPRPRPFYDPRP the “shrunken log2 fold change” value was -0.106.

RRIRLRPPRLPRPRPRPEPYPRP was tested, and the “shrunken log2 fold change” value was -0.305.

RRIRKRPPRLPRPRPRPDSVPRP was tested, and the “shrunken log2 fold change” value was 0.0996.

For RRIRFRPPRLPRPRPRPTWMPRP, the “shrunken log2 fold change” value was 0.611.

For RRIRSRPPRLPRPRPRPTWEPRP, the “shrunken log2 fold change” value was 0.187.

With RRIRDRPPRLPRPRPRPEMIPRP the “shrunken log2 fold change” value was 0.0934.

For RRIRTRPPRLPRPRPRPYRFPRP, the “shrunken log2 fold change” value was -0.0191.

For RRIRDRPPRLPRPRPRPKRWPRP, the “shrunken log2 fold change” value was 0.0314.

In the case of RRIRHRPPRLPRPRPRPAKPPRP, the “shrunken log2 fold change” value is reported as 0.533.

RRIRQRPPRLPRPRPRPLLRPRP was tested, and the “shrunken log2 fold change” value was -0.0709.

In the case of RRIRHRPPRLPRPRPRPDDNPRP, the “shrunken log2 fold change” value is reported as -0.0371.

With RRIRYRPPRLPRPRPRPFQNPRP the “shrunken log2 fold change” value was -0.0769.

RRIRSRPPRLPRPRPRPHKVPRP was tested, and the “shrunken log2 fold change” value was -0.259.

RRIRGRPPRLPRPRPRPEARPRP was tested, and the “shrunken log2 fold change” value was 1.54.

RRIRSRPPRLPRPRPRPYQMPRP was tested, and the “shrunken log2 fold change” value was -0.557.

For RRIRRRPPRLPRPRPRPLKAPRP, the “shrunken log2 fold change” value was 0.785.

For RRIRERPPRLPRPRPRPEWIPRP, the “shrunken log2 fold change” value was 0.064.

RRIRVRPPRLPRPRPRPMPAPRP was tested, and the “shrunken log2 fold change” value was 0.149.

In the case of RRIRRRPPRLPRPRPRPNYGPRP, the “shrunken log2 fold change” value is reported as 0.00704.

In the case of RRIRHRPPRLPRPRPRPQEIPRP, the “shrunken log2 fold change” value is reported as -0.19.

In the case of RRIRARPPRLPRPRPRPFCRPRP, the “shrunken log2 fold change” value is reported as 0.211.

In the case of RRIRERPPRLPRPRPRPEHYPRP, the “shrunken log2 fold change” value is reported as -0.454.

With RRIRLRPPRLPRPRPRPQKWPRP the “shrunken log2 fold change” value was 2.37.

RRIRLRPPRLPRPRPRPATDPRP was tested, and the “shrunken log2 fold change” value was 0.142.

RRIRKRPPRLPRPRPRPIDTPRP was tested, and the “shrunken log2 fold change” value was -0.0729.

In the case of RRIRSRPPRLPRPRPRPGWNPRP, the “shrunken log2 fold change” value is reported as 0.0897.

For RRIRERPPRLPRPRPRPRNHPRP, the “shrunken log2 fold change” value was -0.367.

For RRIRPRPPRLPRPRPRPHSHPRP, the “shrunken log2 fold change” value was 0.00335.

For RRIRFRPPRLPRPRPRPPYSPRP, the “shrunken log2 fold change” value was -0.235.

In the case of RRIRDRPPRLPRPRPRPVLVPRP, the “shrunken log2 fold change” value is reported as 0.0945.

For RRIRDRPPRLPRPRPRPQLNPRP, the “shrunken log2 fold change” value was -0.267.

With RRIRGRPPRLPRPRPRPQQQPRP the “shrunken log2 fold change” value was 0.843.

RRIRNRPPRLPRPRPRPECGPRP was tested, and the “shrunken log2 fold change” value was 0.445.

In the case of RRIRYRPPRLPRPRPRPVPRPRP, the “shrunken log2 fold change” value is reported as 0.204.

With RRIRMRPPRLPRPRPRPPCGPRP the “shrunken log2 fold change” value was 0.788.

RRIRLRPPRLPRPRPRPQFRPRP was tested, and the “shrunken log2 fold change” value was -0.244.
